In paper PMC8517123, “Functional Interaction Between Caveolin 1 and LRRC8-Mediated Volume-Regulated Anion Channel” (Frontiers in Physiology, 2021):

Target: T1, Leucine-rich repeat-containing 8A (human (endogenous in HEK 293), UniProt Q8IWT6 1-810)
T1 construct: LRRC8A, essential subunit of the volume-regulated anion channel (VRAC), endogenous in HEK 293 cells; Endogenous protein in lysate; in cells it is part of heteromeric LRRC8 channels, and other subunits may be present in the precipitate; also called LRRC8A; source: endogenous, HEK 293 lysate (1% Triton X-100)
T1 sequence (looked up): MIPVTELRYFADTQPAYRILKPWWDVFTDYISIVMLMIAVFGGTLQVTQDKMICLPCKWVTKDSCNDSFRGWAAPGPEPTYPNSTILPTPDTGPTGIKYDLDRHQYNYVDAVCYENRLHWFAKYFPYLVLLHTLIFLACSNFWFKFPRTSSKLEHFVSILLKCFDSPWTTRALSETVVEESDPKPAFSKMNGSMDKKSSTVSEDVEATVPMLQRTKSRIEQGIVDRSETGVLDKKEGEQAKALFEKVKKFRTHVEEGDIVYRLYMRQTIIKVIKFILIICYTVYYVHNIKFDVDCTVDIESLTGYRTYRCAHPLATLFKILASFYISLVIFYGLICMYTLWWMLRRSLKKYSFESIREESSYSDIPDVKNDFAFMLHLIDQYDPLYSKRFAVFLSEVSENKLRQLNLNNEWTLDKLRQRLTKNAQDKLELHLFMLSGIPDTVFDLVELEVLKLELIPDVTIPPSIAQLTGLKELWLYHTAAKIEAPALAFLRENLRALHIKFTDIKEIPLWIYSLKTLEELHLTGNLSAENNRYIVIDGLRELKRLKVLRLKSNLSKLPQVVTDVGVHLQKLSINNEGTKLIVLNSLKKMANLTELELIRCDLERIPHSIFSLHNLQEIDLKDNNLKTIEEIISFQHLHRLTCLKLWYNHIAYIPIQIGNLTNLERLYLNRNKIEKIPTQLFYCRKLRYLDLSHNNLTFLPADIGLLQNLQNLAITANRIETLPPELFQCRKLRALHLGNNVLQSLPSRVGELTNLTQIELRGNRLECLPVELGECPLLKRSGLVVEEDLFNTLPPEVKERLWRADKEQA
Test: co-IP; endogenous proteins; HEK 293 cells exposed to isotonic (300 mOsm/Kg) or hypotonic (255 mOsm/Kg) solution for 7 min at 37°C; lysis in 1% Triton X-100; 100-500 μg protein with 2-4 μg anti-Cav1 or anti-LRRC8A antibody at 4°C overnight, protein A sepharose; western blot
Conditions: partners not purified

LRRC8A/Cav1 ratio, hypotonic vs. isotonic (densitometry of co-IP): 2.2 ratio
B1: Caveolin 1 (natural protein, human (endogenous in HEK 293), UniProt Q03135 1-178, looked up)
chain: MSGGKYVDSEGHLYTVPIREQGNIYKPNNKAMADELSEKQVYDAHTKEIDLVNRDPKHLNDDVVKIDFEDVIAEPEGTHSFDGIWKASFTTFTVTKYWFYRLLSALFGIPMALIWGIYFAILSFLHIWAVVPCIKSFLIEIQCISRVYSIYVHTVCDPLFEAVGKIFSNVRINLQKEI
notes: Caveolin 1, endogenous in HEK 293 cells; also called Cav1; source: endogenous, HEK 293 lysate (1% Triton X-100)
